From patent publication US20240294636A1 (YALE UNIVERSITY, published 2024)

Molecular target: T1, mouse Unc5B (mouse, UniProt Q8K1S3 27-945)
T1 construct: whole, on cells; Endogenous protein; also called Uncoordinated 5B
Assay: immunoprecipitation from mouse brain endothelial Bend.3 cells with the named antibody, western blot of the precipitate for Unc5B and Claudin5

T1 sequence (Q8K1S3 27-945): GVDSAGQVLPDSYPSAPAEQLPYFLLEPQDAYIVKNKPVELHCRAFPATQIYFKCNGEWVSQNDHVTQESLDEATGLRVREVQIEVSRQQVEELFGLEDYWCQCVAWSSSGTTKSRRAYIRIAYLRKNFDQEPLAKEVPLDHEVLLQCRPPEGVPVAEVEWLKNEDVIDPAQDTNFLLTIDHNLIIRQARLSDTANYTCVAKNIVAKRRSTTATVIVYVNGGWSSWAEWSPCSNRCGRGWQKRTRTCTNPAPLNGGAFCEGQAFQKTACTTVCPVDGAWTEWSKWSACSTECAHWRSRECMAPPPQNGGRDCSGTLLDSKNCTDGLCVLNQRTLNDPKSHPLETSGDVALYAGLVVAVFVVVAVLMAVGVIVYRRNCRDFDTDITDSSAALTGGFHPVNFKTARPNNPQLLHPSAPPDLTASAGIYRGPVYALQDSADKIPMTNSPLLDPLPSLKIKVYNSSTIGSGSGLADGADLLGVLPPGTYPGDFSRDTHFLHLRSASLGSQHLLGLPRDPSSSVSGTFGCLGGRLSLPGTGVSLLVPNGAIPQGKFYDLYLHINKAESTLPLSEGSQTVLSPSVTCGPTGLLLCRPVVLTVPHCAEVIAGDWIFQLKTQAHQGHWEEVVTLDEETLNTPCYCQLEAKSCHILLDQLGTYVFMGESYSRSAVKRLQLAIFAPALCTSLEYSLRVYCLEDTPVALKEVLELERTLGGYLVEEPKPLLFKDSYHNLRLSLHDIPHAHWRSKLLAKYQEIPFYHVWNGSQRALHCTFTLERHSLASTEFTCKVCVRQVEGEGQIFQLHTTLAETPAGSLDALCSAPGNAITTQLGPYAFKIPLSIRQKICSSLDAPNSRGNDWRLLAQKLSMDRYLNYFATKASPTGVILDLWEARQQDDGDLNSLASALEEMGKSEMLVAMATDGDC

binding result: binds
B1: anti-Unc5B antibody 1103 (antibody, V domains shown)
VH: EVQLVESGGGLVQPGGSLRLSCAASGFNISYYSIHWVRQAPGKGLEWVASIYSSSGYTSYADSVKGRFTISADTSKNTAYLQMNSLRAEDTAVYYCARGYGLDYWGQGTLVTVSS
VL: DIQMTQSPSSLSASVGDRVTITCRASQSVSSAVAWYQQKPGKAPKLLIYSASSLYSGVPSRFSGSRSGTDFTLTISSLQPEDFATYYCQQHYSYPITFGQGTKVEIKR
notes: also called anti-Unc5B-3
